Experimental data as given in PMC441372.

Target: endogenous gelsolin (mouse (endogenous in osteoclasts)) (UniProt P13020)
Assay: co-IP

Sequence of endogenous gelsolin (mouse (endogenous in osteoclasts)) (P13020 26-780): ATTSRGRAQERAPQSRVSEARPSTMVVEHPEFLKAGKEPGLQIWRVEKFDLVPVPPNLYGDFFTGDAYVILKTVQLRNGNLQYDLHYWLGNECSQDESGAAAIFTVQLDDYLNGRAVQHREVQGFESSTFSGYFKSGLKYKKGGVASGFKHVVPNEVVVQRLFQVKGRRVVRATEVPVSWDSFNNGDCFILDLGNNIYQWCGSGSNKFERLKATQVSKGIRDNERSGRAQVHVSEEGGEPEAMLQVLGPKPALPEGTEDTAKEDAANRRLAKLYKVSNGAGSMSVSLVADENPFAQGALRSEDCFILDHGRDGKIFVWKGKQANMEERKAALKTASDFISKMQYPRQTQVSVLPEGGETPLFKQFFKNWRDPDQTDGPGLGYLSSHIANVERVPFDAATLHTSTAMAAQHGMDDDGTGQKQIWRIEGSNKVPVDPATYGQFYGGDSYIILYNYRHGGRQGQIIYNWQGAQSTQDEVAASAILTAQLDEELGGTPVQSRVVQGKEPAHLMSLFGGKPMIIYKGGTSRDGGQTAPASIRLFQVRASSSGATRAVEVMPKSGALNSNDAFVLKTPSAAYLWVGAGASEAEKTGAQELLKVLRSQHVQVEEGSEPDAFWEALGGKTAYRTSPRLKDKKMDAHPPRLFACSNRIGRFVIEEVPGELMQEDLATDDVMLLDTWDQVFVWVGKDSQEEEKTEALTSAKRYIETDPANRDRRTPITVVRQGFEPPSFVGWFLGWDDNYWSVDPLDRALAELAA

gelsolin/actin ratio of the EGTA-resistant complex (untransduced, OPN): 0.82 | gelsolin/actin ratio of the EGTA-resistant complex (untransduced, PBS): 1.45
Substance: actin (from UniProt P60710 1-375) (natural protein)
